Assay results as given in paper PMC3807213 (Journal of molecular biology, 2012).

B1: EcoP15I modification (Mod) subunit (enzyme, UniProt P12364 1-644, looked up)
chain: MKKETIFSEVETANSKQLAVLKANFPQCFDKNGAFIQEKLLEIIRASEVELSKESYSLNWLGKSYARLLANLPPKTLLAEDKTHNQQEENKNSQHLLIKGDNLEVLKHMVNAYAEKVKMIYIDPPYNTGKDGFVYNDDRKFTPEQLSELAGIDLDEAKRILEFTTKGSSSHSAWLTFIYPRLYIARELMREDGTIFISIDHNEFSQLKLVCDEIFGEQNHVGDLVWKNATDNNPSNIAVEHEYIIVYTKNKEQLISEWKSNISDVKNLLVNIGEEFASKYTGNELQEKYTQWFREHRSELWPLDRYKYIDKDGIYTGSQSVHNPGKEGYRYDIIHPKTKKPCKQPLMGYRFPLDTMDRLLSEEKIIFGDDENKIIELKVYAKDYKQKLSSVIHLDGRVATNELKELFPEMTQPFTNAKTIKLVEDLISFACDGEGIVLDFFAGSGTTAHTVFNLNNKNKTSYQFITVQLDEPTKDKSDAMKHGYNTIFDLTKERLIRASKKNRDQGFKVYQLMPDFRAKDESELTLSNHTFFDDVVLTPEQYDTLLTTWCLYDGSLLTTPIEDVDLGGYKAHLCDGRLYLIAPNFTSEALKALLQKVDSDKDFAPNKVVFYGSNFESAKQMELNEALKSYANKKSIELDLVVRN

Assays:
AUC = target: the molecule itself; assay: AUC
[1] = target: B1; assay: AUC + other: dynamic light scattering

Row | stoichiometry N [1] | Binder | stoichiometry N (AUC)
1 | – | B1 | 2
2 | 1 Res per Mod (2:2) | EcoP15I restriction (Res) subunit (enzyme, UniProt Q5ZND2 1-970, looked up) MSKGFTLEKNLPHQKAGVDAVMNVFVSATPHLTDNVAVRLLANPELKLSEQQYYNNIKNVQAFNGIAHSKDNHNAKSNIIDVSMETGTGKTYTYIKTIFDLNKSFGINKFIIIVPTLSIKAGTVNFLKSDALKEHFRDDYKRELRTYVVESQKNAGKNTKSYMPQAIHDFVEASNFNKKYIHVLVINSGMINSKSLTDTYDTGLLDNQFNTPVDALRAVKPFIIIDEPHRFPTGKKTWENIEKFNAQYIIRYGATFSEGYKNLVYRLTAVDAFNDDLVKGIDAYIEDIVGDGNANLKFVKSDGKEATFELNENNNKKSFKLAKGESLSKTHSAIHDLTLDALNKSTAVLSNGIELKIGSSINPYSYDQTLADNMMRKAVKEHFKLEKELLTQRPRIKPLTLFFIDDIEGYRDGNDISGSLKTKFEEYVLAEANELLKTEQDAFYKNYLEKTVTNISSVHGGYFSKDNSDKDDKIEQEINEILHDKELLLSLDNPRRFIFSKWTLREGWDNPNVFQICKLRSSGSTTSKLQEVGRGLRLPVNEYMCRVKDRNFTLKYYVDFTEKDFVDSLVKEVNESSFKERVPSKFTQELKEQIMAQYPELSSRALMNELFNDEIIDDNDNFKDSDAYSRLKSKYPAAFPIGVKPGKIKKATDGKRRTKMRVGKFSELKELWDLINQKAVIEYKINSESEFLSIFKSFMLEETERFTKSGVHTRIDKIYIHNDMAMSKSIVSDDDDFAKLNTMSYREFLDNLSQTIFVKHGTLHKVFCDIKDTINITEYLNIQTIRKIKSGFSKYLLNNSFNKFSLGYNLISGSIHPTKFTNADGNPLGEVLSSDLGVLQDNAKAPLDTYLFEEVFYDSELERRNITDREIQSVVVFSKIPKNSIKIPVAGGYTYSPDFAYVVKTAEGDYLNFIIETKNVDSKDSLRLEEKRKIEHAQALFNQISQSVKVEFRTQFANDDIYQLIKSALP | –
